Assay results published in patent US20160264649A1.

Tests used:
Assay in all cases: cell-based or functional assay
[1] = target: HIV-1 MGRM-A-011 Env (HIV-1)
[2] = target: HIV-1 MGRM-A-010 Env (HIV-1)
[3] = target: HIV-1 MGRM-A-002 Env (HIV-1)
[4] = target: HIV-1 MGRM-A-007 Env (HIV-1)
[5] = target: HIV-1 MGRM-A-003 Env (HIV-1)
[6] = target: HIV-1 92UG037 Env (HIV-1)
[7] = target: HIV-1 94UG103 Env (HIV-1)
[8] = target: HIV-1 92RW020 Env (HIV-1)
[9] = target: HIV-1 92RW026 Env (HIV-1)
[10] = target: HIV-1 94KE105 Env (HIV-1)
[11] = target: HIV-1 MGRM-A-012 Env (HIV-1)
[12] = target: HIV-1 MGRM-A-006 Env (HIV-1)
[13] = target: HIV-1 92UG031 Env (HIV-1)
[14] = target: HIV-1 MGRM-A-013 Env (HIV-1)
[15] = target: HIV-1 92RW024 Env (HIV-1)
[16] = target: HIV-1 MGRM-A-014 Env (HIV-1)
[17] = target: HIV-1 MGRM-A-005 Env (HIV-1)
[18] = target: HIV-1 92RW021 Env (HIV-1)
[19] = target: HIV-1 92RW008 Env (HIV-1)
[20] = target: HIV-1 MGRM-A-009 Env (HIV-1)
[21] = target: HIV-1 93RW029 Env (HIV-1)
HIV-1 VLGCA1 Env (HIV-1) = target: HIV-1 VLGCA1 Env (HIV-1)
[22] = target: HIV-1 Env of pseudovirus isolate MGRM-G-017 (subtype G) (HIV-1)
[23] = target: HIV-1 Env of isolate CAAN.A2 (subtype B) (HIV-1)
[24] = target: HIV-1 Env of isolate 92WR021 (subtype A) (HIV-1)
[25] = target: HIV-1 Env of isolate 92UG114 (subtype D) (HIV-1)
[26] = target: HIV-1 Env of isolate MGRM-AE-004 (subtype AE) (HIV-1)
[27] = target: HIV-1 Env of isolate MGRM-F1-010 (subtype F) (HIV-1)
[28] = target: HIV-1 Env of isolate MGRM-D-028 (subtype D) (HIV-1)
[29] = target: HIV-1 Env of pseudovirus isolate MGRM-G-016 (subtype G) (HIV-1)
[30] = target: HIV-1 Env of isolate MG RM-C-024 (subtype C) (HIV-1)
[31] = target: HIV-1 Env of isolate 94UG103 (subtype A) (HIV-1)
[32] = target: HIV-1 Env of isolate 92TH021 (subtype AE) (HIV-1)
[33] = target: HIV-1 Env of isolate 6535.3 (subtype B) (HIV-1)
[34] = target: HIV-1 Env of isolate MGRM-F1-004 (subtype F) (HIV-1)
[35] = target: HIV-1 Env of isolate MG RM-C-022 (subtype C) (HIV-1)
[36] = target: HIV-1 Env of isolate MGRM-Chronic-B-017 (subtype B) (HIV-1)
[37] = target: HIV-1 Env of isolate MG RM-C-019 (subtype C) (HIV-1)
[38] = target: HIV-1 Env of isolate MG RM-C-026 (subtype C) (HIV-1)
[39] = target: HIV-1 Env of isolate 94 KE 105 (subtype AC) (HIV-1)
[40] = target: HIV-1 Env of isolate MGRM-D-024 (subtype D) (HIV-1)
[41] = target: HIV-1 Env of isolate MGRM-F1-012 (subtype F) (HIV-1)
[42] = target: HIV-1 Env of isolate MGRM-D-019 (subtype D) (HIV-1)
[43] = target: HIV-1 Env of isolate 92UG024 (subtype D) (HIV-1)
[44] = target: HIV-1 Env of isolate MGRM-D-016 (subtype D) (HIV-1)
[45] = target: HIV-1 Env of isolate 93MW959 (subtype C) (HIV-1)
[46] = target: HIV-1 Env of pseudovirus isolate MGRM-G-006 (subtype G) (HIV-1)
[47] = target: HIV-1 Env of isolate MGRM-AE-003 (subtype AE) (HIV-1)
[48] = target: HIV-1 Env of isolate 97ZA012 (subtype C) (HIV-1)
[49] = target: HIV-1 Env of isolate 92WR024 (subtype A) (HIV-1)

4E10 (antibody)
neutralization IC50 [1]: 2.88 µg/mL | neutralization IC50 [2]: 14.4 µg/mL | neutralization IC50 [3]: 6.45 µg/mL | neutralization IC50 [4]: 1.82 µg/mL | neutralization IC50 [5]: 5.94 µg/mL | neutralization IC50 [6]: 8.84 µg/mL | neutralization IC50 [7]: 4.97 µg/mL | neutralization IC50 [8]: 4.54 µg/mL | neutralization IC50 [9]: 12.9 µg/mL | neutralization IC50 [10]: 7.63 µg/mL | neutralization IC50 [11]: 4.27 µg/mL | neutralization IC50 [12]: 9.87 µg/mL | neutralization IC50 [13]: 4.94 µg/mL | neutralization IC50 [14]: 1.46 µg/mL | neutralization IC50 [15]: 8.88 µg/mL | neutralization IC50 [16]: 1.74 µg/mL | neutralization IC50 [17]: 4.09 µg/mL | neutralization IC50 [18]: 4.87 µg/mL | neutralization IC50 [19]: 14.5 µg/mL | neutralization IC50 [20]: 12 µg/mL | neutralization IC50 [21]: 15.5 µg/mL | neutralization IC50 (HIV-1 VLGCA1 Env (HIV-1)): 4.58 µg/mL

2G12 (antibody)
neutralization IC50 [1]: > 50 µg/mL | neutralization IC50 [2]: 17 µg/mL | neutralization IC50 [3]: > 50 µg/mL | neutralization IC50 [4]: > 50 µg/mL | neutralization IC50 [5]: > 50 µg/mL | neutralization IC50 [6]: 45.2 µg/mL | neutralization IC50 [7]: 48.1 µg/mL | neutralization IC50 [8]: 0.48 µg/mL | neutralization IC50 [9]: 17.2 µg/mL | neutralization IC50 [10]: 7.22 µg/mL | neutralization IC50 [11]: > 50 µg/mL | neutralization IC50 [12]: 13.8 µg/mL | neutralization IC50 [13]: > 50 µg/mL | neutralization IC50 [14]: > 50 µg/mL | neutralization IC50 [15]: > 50 µg/mL | neutralization IC50 [16]: > 50 µg/mL | neutralization IC50 [17]: > 50 µg/mL | neutralization IC50 [18]: > 50 µg/mL | neutralization IC50 [19]: 22.5 µg/mL | neutralization IC50 [20]: 7.47 µg/mL | neutralization IC50 [21]: > 50 µg/mL | neutralization IC50 (HIV-1 VLGCA1 Env (HIV-1)): > 50 µg/mL

b12 (antibody)
neutralization IC50 [1]: 4.01 µg/mL | neutralization IC50 [2]: > 50 µg/mL | neutralization IC50 [3]: > 50 µg/mL | neutralization IC50 [4]: > 50 µg/mL | neutralization IC50 [5]: > 50 µg/mL | neutralization IC50 [6]: > 50 µg/mL | neutralization IC50 [7]: 6.92 µg/mL | neutralization IC50 [8]: > 50 µg/mL | neutralization IC50 [9]: > 50 µg/mL | neutralization IC50 [10]: > 50 µg/mL | neutralization IC50 [11]: > 50 µg/mL | neutralization IC50 [12]: 13.6 µg/mL | neutralization IC50 [13]: > 50 µg/mL | neutralization IC50 [14]: 7.04 µg/mL | neutralization IC50 [15]: > 50 µg/mL | neutralization IC50 [16]: > 50 µg/mL | neutralization IC50 [17]: 3.64 µg/mL | neutralization IC50 [18]: > 50 µg/mL | neutralization IC50 [19]: 9.46 µg/mL | neutralization IC50 [20]: 4.34 µg/mL | neutralization IC50 [21]: > 50 µg/mL | neutralization IC50 (HIV-1 VLGCA1 Env (HIV-1)): > 50 µg/mL

PGV04 (antibody)
IC50 [22]: 0.065 µg/mL | IC50 [23]: 2.26 µg/mL | IC50 (pseudovirus neutralization) [24]: 0.038 µg/mL | IC50 (pseudovirus neutralization) [25]: 0.461 µg/mL | IC50 (pseudovirus neutralization) [26]: 0.183 µg/mL | IC50 (pseudovirus neutralization) [27]: 0.184 µg/mL | IC50 (pseudovirus neutralization) [28]: 1.01 µg/mL | IC50 [29]: 0.019 µg/mL | IC50 (µg/mL), pseudovirus neutralization [30]: > 50 µg/mL | IC50 (pseudovirus neutralization) [31]: 0.202 µg/mL | IC50 (pseudovirus neutralization) [32]: 1.29 µg/mL | IC50 [33]: 0.757 µg/mL | IC50 (pseudovirus neutralization) [34]: 0.58 µg/mL | IC50 (µg/mL), pseudovirus neutralization [35]: 18.3 µg/mL | IC50 [36]: 0.129 µg/mL | IC50 (µg/mL), pseudovirus neutralization [37]: 9.63 µg/mL | IC50 (µg/mL), pseudovirus neutralization [38]: 0.303 µg/mL | IC50 (pseudovirus neutralization) [39]: 2.98 µg/mL | IC50 (pseudovirus neutralization) [40]: > 50 µg/mL | IC50 (pseudovirus neutralization) [41]: 0.25 µg/mL | IC50 (pseudovirus neutralization) [42]: 0.35 µg/mL | IC50 (neutralization) [43]: 0.201 µg/mL | IC50 (pseudovirus neutralization) [44]: 0.201 µg/mL | IC50 (µg/mL), pseudovirus neutralization [45]: > 50 µg/mL | IC50 [46]: 0.083 µg/mL | IC50 (pseudovirus neutralization) [47]: 6.4 µg/mL | IC50 (µg/mL), pseudovirus neutralization [48]: 0.041 µg/mL | IC50 (pseudovirus neutralization) [49]: 0.31 µg/mL
